According to patent US20250269045A1 (PHARMAESSENTIA, published 2025):

B1: Filgrastim Reference Standard (ligand, human, UniProt P09919-2 31-204, looked up)
chain: TPLGPASSLPQSFLLKCLEQVRKIQGDGAALQEKLCATYKLCHPEELVLLGHSLGIPWAPLSSCPSQALQLAGCLSQLHSGLFLYQGLLQALEGISPELGPTLDTLQLDVADFATTIWQQMEELGMAPALQPTQGAMPAFASAFQRRAGGVLVASHLQSFLEVSYRVLRHLAQP
notes: also called Filgrastim RS
B2: mPEG-MetHuG-CSF (ligand)
chain: MTPLGPASSLPQSFLLKCLEQVRKIQGDGAALQEKLCATYKLCHPEELVLLGHSLGIPWAPLSSCPSQALQLAGCLSQLHSGLFLYQGLLQALEGISPELGPTLDTLQLDVADFATTIWQQMEELGMAPALQPTQGAMPAFASAFQRRAGGVLVASHLQSFLEVSYRVLRHLAQP
modifications: branched mPEG (two arms, each about 19-23 KDa; 40K-mPEG-aldehyde) covalently attached by amine linkage to the N-terminal Met (residue 1)
notes: also called P2203
B3: MetHuG-CSF (ligand)
chain: MTPLGPASSLPQSFLLKCLEQVRKIQGDGAALQEKLCATYKLCHPEELVLLGHSLGIPWAPLSSCPSQALQLAGCLSQLHSGLFLYQGLLQALEGISPELGPTLDTLQLDVADFATTIWQQMEELGMAPALQPTQGAMPAFASAFQRRAGGVLVASHLQSFLEVSYRVLRHLAQP
notes: 175 aa: the 174 aa human G-CSF plus an N-terminal Met; also called MetHuG-CSF intermediate; human G-CSF with additional N-terminal Met

Tests used:
[1] = target: T1, granulocyte colony-stimulating factor receptor (G-CSFR) (human, UniProt Q99062 25-621, limits assumed); test: SPR (Biacore CM5), G-CSFR immobilised, analyte in flow, 1:1 kinetic fit
T1 construct: also called GCSF receptor; G-CSF receptor
T1 sequence (looked up): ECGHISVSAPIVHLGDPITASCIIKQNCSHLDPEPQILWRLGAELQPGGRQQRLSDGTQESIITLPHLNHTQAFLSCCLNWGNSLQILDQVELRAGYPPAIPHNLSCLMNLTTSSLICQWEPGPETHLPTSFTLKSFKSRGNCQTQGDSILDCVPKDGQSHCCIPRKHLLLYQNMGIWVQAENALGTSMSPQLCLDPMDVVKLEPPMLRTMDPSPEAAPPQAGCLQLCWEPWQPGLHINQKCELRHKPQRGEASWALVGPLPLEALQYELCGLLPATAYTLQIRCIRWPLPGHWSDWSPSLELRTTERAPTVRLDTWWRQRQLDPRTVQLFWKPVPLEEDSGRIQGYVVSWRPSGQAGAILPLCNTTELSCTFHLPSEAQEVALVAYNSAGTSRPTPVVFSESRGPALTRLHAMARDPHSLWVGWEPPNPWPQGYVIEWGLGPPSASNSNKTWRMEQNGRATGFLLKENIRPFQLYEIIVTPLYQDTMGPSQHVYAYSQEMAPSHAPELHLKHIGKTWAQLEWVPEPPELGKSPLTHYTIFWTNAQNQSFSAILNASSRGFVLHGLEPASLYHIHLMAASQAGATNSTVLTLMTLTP
Procedure: (§1) In this example, G-CSFR (GCSF receptors) were immobilized onto the Sensor Chip CM5 (Biacore, trademarked) as the ligand. In each testing samples, Filgrastim RS (reference standard), MetHuG-CSF, and mPEG-MetHuG-CSF, as the analyte, were flowed through the ligand on CM5 chip respectively. The titration range of test sample analytes used in the assay was 40.5, 20.2, […], 10.1, 5.1, 2.5, 1.3 and 0.6 nM. Formulation buffers of testing samples were also tested as negative controls. The binding between the ligand and the analyte was monitored through SPR sensorgram. As slow-on and slow-off sensorgrams were observed, the kinetics fit model (“1:1 binding”) was used to obtain association constant (ka) and dissociation constant (kd), and KD was calculated by kd/ka.

[2] = target: T1, granulocyte colony-stimulating factor …; test: SPR (Biacore CM5), G-CSFR immobilised; this sample is the reference itself
Procedure: as §1
(§2) In Table 6 below, KD values of three testing samples towards G-CSFR were determined by SPR and summarized in the unit of molar concentration (M). For the KD ratio, the KD value of each testing sample was normalized with KD of Filgrastim RS.

[3] = target: T1, granulocyte colony-stimulating factor …; test: SPR (Biacore CM5), G-CSFR immobilised, analyte in flow, 1:1 kinetic fit, KD = kd/ka
Procedure: as §1

[4] = target: T1, granulocyte colony-stimulating factor …; test: SPR (Biacore CM5), G-CSFR immobilised; KD divided by KD of Filgrastim RS
Procedure: as §1, §2

| Binder | koff [1] | kon [1] | KD ratio (normalised to Filgrastim RS) [2] | Kd [3] | KD ratio (normalised to Filgrastim RS) [4] |
| --- | --- | --- | --- | --- | --- |
| B1 | 0.000444 s⁻¹ | 747000 M⁻¹ s⁻¹ | 1 | 0.595 nM | – |
| B2 | 0.000401 s⁻¹ | 408000 M⁻¹ s⁻¹ | – | 0.982 nM | 1.65 |
| B3 | 0.000469 s⁻¹ | 657000 M⁻¹ s⁻¹ | – | 0.713 nM | 1.2 |
